Assay results: patent US20040091953
Positions count from the first letter of the chain named.

Assays:
[1] = biological target: other hSIRT3 mutants targeting arginine residues at positions 133, 135, 139 and 158
[2] = biological target: T1, hSIRT3R99/100G-FLAG
T1 chain: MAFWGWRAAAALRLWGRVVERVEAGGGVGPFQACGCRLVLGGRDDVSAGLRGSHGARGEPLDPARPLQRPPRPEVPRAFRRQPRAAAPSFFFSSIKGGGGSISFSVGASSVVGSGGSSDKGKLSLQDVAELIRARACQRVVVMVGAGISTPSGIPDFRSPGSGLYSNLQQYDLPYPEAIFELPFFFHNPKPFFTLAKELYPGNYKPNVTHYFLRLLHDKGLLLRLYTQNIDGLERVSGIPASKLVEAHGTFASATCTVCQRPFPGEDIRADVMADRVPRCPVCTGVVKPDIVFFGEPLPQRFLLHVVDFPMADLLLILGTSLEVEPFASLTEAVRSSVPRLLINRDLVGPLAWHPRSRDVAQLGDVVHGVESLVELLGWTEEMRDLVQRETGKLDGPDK

[3] = biological target: T2, hSIRT3-FLAG, full-length 44 kDa form
T2 chain: T1 chain with G99R, G100R

[4] = biological target: fusion protein between subunit 9 of F0/F1-ATPase and DHFR

B1: purified recombinant yeast MPP (protein)
chain 1: ARTDNFKLSSLANGLKVATSNTPGHFSALGLYIDAGSRFEGRNLKGCTHILDRLAFKSTEHVEGRAMAETLELLGGNYQCTSSRENLMYQASVFNQDVGKMLQLMSETVRFPKITEQELQEQKLSAEYEIDEVWMKPELVLPELLHTAAYSGETLGSPLICPRELIPSISKYYLLDYRNKFYTPENTVAAFVGVPHEKALELTEKYLGDWQSTHPPITKKVAQYTGGESCIPPAPVFGNLPELFHIQIGFEGLPIDHPDIYALATLQTLLGGGGSFSAGGPGKGMYSRLYTHVLNQYYFVENCVAFNHSYSDSGIFGISLSCIPQAAPQAVEVIAQQMYNTFANKDLRLTEDEVSRAKNQLKSSLLMNLESKLVELEDMGRQVLMHGRKIPVNEMISKIEDLKPDDISRVAEMIFTGNVNNAGNGKGRATVVMQGDRGSFGDVENVLKAYGLGNSSSSKNDSPKKKGWF
chain 2: SQIPGTRTSKLPNGLTIATEYIPNTSSATVGIFVDAGSRAENVKNNGTAHFLEHLAFKGTQNRSQQGIELEIENIGSHLNAYTSRENTVYYAKSLQEDIPKAVDILSDILTKSVLDNSAIERERDVIIRESEEVDKMYDEVVFDHLHEITYKDQPLGRTILGPIKNIKSITRTDLKDYITKNYKGDRMVLAGAGAVDHEKLVQYAQKYFGHVPKSESPVPLGSPRGPLPVFCRGERFIKENTLPTTHIAIALEGVSWSAPDYFVALATQAIVGNWDRAIGTGTNSPSPLAVAASQNGSLANSYMSFSTSYADSGLWGMYIVTDSNEHNVQLIVNEILKEWKRIKSGKISDAEVNRAKAQLKAALLLSLDGSTAIVEDIGRQVVTTGKRLSPEEVFEQVDKITKDDIIMWANYRLQNKPVSMVALGNTSTVPNVSYIEEKLNQ
cleavage by MPP in vitro [1]: other mutants were unaffected | cleavage by MPP in vitro [2]: showed abrogation of cleavage by MPP in vitro | cleavage by MPP in vitro [3]: led to its cleavage to a product of ˜28 KDa | cleavage by MPP in vitro [4]: resulted in the appearance of digestion products similar to what has been previously reported
